Tested on: Escherichia coli TOP10
Assay: shrunken log2 fold change of peptide-encoding DNA abundance (4.5 h post-induction vs induction); higher = less antimicrobial activity (less host growth inhibition)
Details: time post-induction: 4.5 h; library: site-saturation at positions 5, 18, 19, 20
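Note: peptides expressed intracellularly from a pBAD plasmid library in pooled LB shake-flask culture, induced with 0.3% L-arabinose, DNA abundance read by NGS, three biological replicates, DESeq2 with apeglm shrinkage.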

Sequence	shrunken log2 fold change
RRIRIRPPRLPRPRPRPTVLPRP	-0.369
RRIRIRPPRLPRPRPRPTVNPRP	-0.608
RRIRIRPPRLPRPRPRPTWLPRP	-0.124
RRIRIRPPRLPRPRPRPTYIPRP	-1.29
RRIRIRPPRLPRPRPRPTYYPRP	-0.827
RRIRIRPPRLPRPRPRPVCNPRP	-0.52
RRIRIRPPRLPRPRPRPVCWPRP	0.32
RRIRIRPPRLPRPRPRPVEMPRP	-0.299
RRIRIRPPRLPRPRPRPVFWPRP	0.201
RRIRIRPPRLPRPRPRPVGQPRP	-0.195
RRIRIRPPRLPRPRPRPVHFPRP	-0.355
RRIRIRPPRLPRPRPRPVICPRP	-0.063
RRIRIRPPRLPRPRPRPVIWPRP	0.204
RRIRIRPPRLPRPRPRPVKQPRP	0.101
RRIRIRPPRLPRPRPRPVKRPRP	-0.09
RRIRIRPPRLPRPRPRPVNFPRP	-0.0259
RRIRIRPPRLPRPRPRPVPYPRP	-0.556
RRIRIRPPRLPRPRPRPVQSPRP	-0.168
RRIRIRPPRLPRPRPRPVRNPRP	-0.0578
RRIRIRPPRLPRPRPRPVRRPRP	0.377
RRIRIRPPRLPRPRPRPVRWPRP	0.474
RRIRIRPPRLPRPRPRPVSLPRP	-0.147
RRIRIRPPRLPRPRPRPVTNPRP	-0.208
RRIRIRPPRLPRPRPRPVWNPRP	-0.576
RRIRIRPPRLPRPRPRPVYRPRP	0.00778

Sequence	shrunken log2 fold change
RRIRIRPPRLPRPRPRPWAFPRP	-0.0187
RRIRIRPPRLPRPRPRPWCNPRP	-0.33
RRIRIRPPRLPRPRPRPWDFPRP	-0.11
RRIRIRPPRLPRPRPRPWDHPRP	0.0393
RRIRIRPPRLPRPRPRPWDMPRP	-0.00715
RRIRIRPPRLPRPRPRPWFAPRP	-0.31
RRIRIRPPRLPRPRPRPWFEPRP	-0.161
RRIRIRPPRLPRPRPRPWHGPRP	-0.0996
RRIRIRPPRLPRPRPRPWKKPRP	0.00748
RRIRIRPPRLPRPRPRPWKSPRP	-0.0108
RRIRIRPPRLPRPRPRPWKVPRP	0.0349
RRIRIRPPRLPRPRPRPWNNPRP	-0.89
RRIRIRPPRLPRPRPRPWPSPRP	0.193
RRIRIRPPRLPRPRPRPWPVPRP	-0.0355
RRIRIRPPRLPRPRPRPWQFPRP	-0.243
RRIRIRPPRLPRPRPRPWRAPRP	0.0578
RRIRIRPPRLPRPRPRPWRSPRP	0.00683
RRIRIRPPRLPRPRPRPWRVPRP	-0.0531
RRIRIRPPRLPRPRPRPWSLPRP	-0.449
RRIRIRPPRLPRPRPRPWSMPRP	-0.00809
RRIRIRPPRLPRPRPRPWTQPRP	0.0826
RRIRIRPPRLPRPRPRPWVLPRP	-0.142
RRIRIRPPRLPRPRPRPWWCPRP	-0.196
RRIRIRPPRLPRPRPRPWWQPRP	0.0732
RRIRIRPPRLPRPRPRPWYGPRP	-1.24

Sequence	shrunken log2 fold change
RRIRIRPPRLPRPRPRPWYYPRP	-0.00149
RRIRIRPPRLPRPRPRPYAFPRP	-1.1
RRIRIRPPRLPRPRPRPYAWPRP	-0.402
RRIRIRPPRLPRPRPRPYCAPRP	-0.978
RRIRIRPPRLPRPRPRPYCGPRP	-0.179
RRIRIRPPRLPRPRPRPYCKPRP	-0.592
RRIRIRPPRLPRPRPRPYCWPRP	-0.185
RRIRIRPPRLPRPRPRPYEYPRP	-0.0772
RRIRIRPPRLPRPRPRPYFTPRP	-0.702
RRIRIRPPRLPRPRPRPYGEPRP	-0.148
RRIRIRPPRLPRPRPRPYGWPRP	-0.0644
RRIRIRPPRLPRPRPRPYHCPRP	-0.0272
RRIRIRPPRLPRPRPRPYIQPRP	-1.75
RRIRIRPPRLPRPRPRPYLLPRP	-1.52
RRIRIRPPRLPRPRPRPYLSPRP	-0.0357
RRIRIRPPRLPRPRPRPYMPPRP	-1.27
RRIRIRPPRLPRPRPRPYQDPRP	-0.0361
RRIRIRPPRLPRPRPRPYQQPRP	-0.0163
RRIRIRPPRLPRPRPRPYRHPRP	-0.0614
RRIRIRPPRLPRPRPRPYVNPRP	-0.0125
RRIRIRPPRLPRPRPRPYVTPRP	-0.526
RRIRIRPPRLPRPRPRPYWAPRP	-1.07
RRIRIRPPRLPRPRPRPYYPPRP	-1.36
RRIRKRPPRLPRPRPRPAANPRP	0.647
RRIRKRPPRLPRPRPRPAARPRP	0.742

Sequence	shrunken log2 fold change
RRIRKRPPRLPRPRPRPAELPRP	0.552
RRIRKRPPRLPRPRPRPAFHPRP	0.0641
RRIRKRPPRLPRPRPRPAFQPRP	0.107
RRIRKRPPRLPRPRPRPAGIPRP	0.252
RRIRKRPPRLPRPRPRPAHGPRP	0.502
RRIRKRPPRLPRPRPRPAKDPRP	0.247
RRIRKRPPRLPRPRPRPAKIPRP	-0.266
RRIRKRPPRLPRPRPRPAMGPRP	0.14
RRIRKRPPRLPRPRPRPAMIPRP	0.909
RRIRKRPPRLPRPRPRPAMLPRP	0.292
RRIRKRPPRLPRPRPRPANQPRP	0.239
RRIRKRPPRLPRPRPRPANWPRP	0.596
RRIRKRPPRLPRPRPRPANYPRP	0.0421
RRIRKRPPRLPRPRPRPAPCPRP	0.432
RRIRKRPPRLPRPRPRPAQNPRP	0.943
RRIRKRPPRLPRPRPRPARMPRP	0.905
RRIRKRPPRLPRPRPRPASWPRP	0.625
RRIRKRPPRLPRPRPRPATVPRP	0.0874
RRIRKRPPRLPRPRPRPAVIPRP	0.076
RRIRKRPPRLPRPRPRPAWFPRP	0.0729
RRIRKRPPRLPRPRPRPCAHPRP	0.0754
RRIRKRPPRLPRPRPRPCARPRP	-0.00716
RRIRKRPPRLPRPRPRPCCQPRP	-0.102
RRIRKRPPRLPRPRPRPCDSPRP	-0.212
RRIRKRPPRLPRPRPRPCFAPRP	0.358

Sequence	shrunken log2 fold change
RRIRKRPPRLPRPRPRPCFFPRP	0.113
RRIRKRPPRLPRPRPRPCFHPRP	-0.125
RRIRKRPPRLPRPRPRPCHMPRP	-0.538
RRIRKRPPRLPRPRPRPCIPPRP	-0.0433
RRIRKRPPRLPRPRPRPCLDPRP	-0.173
RRIRKRPPRLPRPRPRPCMHPRP	-0.0309
RRIRKRPPRLPRPRPRPCMKPRP	-0.0153
RRIRKRPPRLPRPRPRPCNIPRP	-0.697
RRIRKRPPRLPRPRPRPCNQPRP	0.0585
RRIRKRPPRLPRPRPRPCQGPRP	-0.141
RRIRKRPPRLPRPRPRPCQKPRP	-0.0405
RRIRKRPPRLPRPRPRPCSPPRP	-0.102
RRIRKRPPRLPRPRPRPCVAPRP	0.223
RRIRKRPPRLPRPRPRPCVMPRP	0.0542
RRIRKRPPRLPRPRPRPCYRPRP	-0.0703
RRIRKRPPRLPRPRPRPDAFPRP	0.00489
RRIRKRPPRLPRPRPRPDATPRP	2.81
RRIRKRPPRLPRPRPRPDCHPRP	0.233
RRIRKRPPRLPRPRPRPDCWPRP	0.825
RRIRKRPPRLPRPRPRPDEHPRP	0.0292
RRIRKRPPRLPRPRPRPDFFPRP	0.0109
RRIRKRPPRLPRPRPRPDFLPRP	0.179
RRIRKRPPRLPRPRPRPDFQPRP	0.33
RRIRKRPPRLPRPRPRPDHEPRP	-0.013
RRIRKRPPRLPRPRPRPDIGPRP	-0.0485

Sequence	shrunken log2 fold change
RRIRKRPPRLPRPRPRPDIHPRP	0.167
RRIRKRPPRLPRPRPRPDIIPRP	0.194
RRIRKRPPRLPRPRPRPDKDPRP	-0.0555
RRIRKRPPRLPRPRPRPDKHPRP	0.0337
RRIRKRPPRLPRPRPRPDKTPRP	-0.0726
RRIRKRPPRLPRPRPRPDKVPRP	0.116
RRIRKRPPRLPRPRPRPDLHPRP	-0.0392
RRIRKRPPRLPRPRPRPDMCPRP	0.217
RRIRKRPPRLPRPRPRPDNIPRP	-0.0306
RRIRKRPPRLPRPRPRPDNRPRP	0.00592
RRIRKRPPRLPRPRPRPDQCPRP	0.0219
RRIRKRPPRLPRPRPRPDSKPRP	-0.0709
RRIRKRPPRLPRPRPRPDSTPRP	-0.0499
RRIRKRPPRLPRPRPRPDSYPRP	-0.00206
RRIRKRPPRLPRPRPRPDTAPRP	0.154
RRIRKRPPRLPRPRPRPDTEPRP	1.13
RRIRKRPPRLPRPRPRPDTNPRP	0.335
RRIRKRPPRLPRPRPRPDTRPRP	0.0202
RRIRKRPPRLPRPRPRPDVKPRP	-0.0302
RRIRKRPPRLPRPRPRPDVRPRP	0.0826
RRIRKRPPRLPRPRPRPDVTPRP	1.47
RRIRKRPPRLPRPRPRPDWMPRP	0.00417
RRIRKRPPRLPRPRPRPDWPPRP	0.168
RRIRKRPPRLPRPRPRPDYMPRP	0.0305
RRIRKRPPRLPRPRPRPEAKPRP	2.54

Reference: the supplement of paper PMC9112550, “Optimization of the antimicrobial peptide Bac7 by deep mutational scanning” (BMC Biology, 2022)
